From ChEMBL document CHEMBL3232870, “Discovery of 3-(4-methanesulfonylphenoxy)-N-[1-(2-methoxy-ethoxymethyl)-1H-pyrazol-3-yl]-5-(3-methylpyridin-2-yl)-benzamide as a novel glucokinase activator (GKA) for the treatment of type 2 diabetes mellitus” (Bioorg Med Chem, 2014)

Substrate: COCCOCn1ccc(NC(=O)c2cc(Oc3ccc(S(C)(=O)=O)cc3)cc(-c3ncccc3C)c2)n1
Assay: Activity of recombinant human pancreatic glucokinase assessed as glucose half-maximal activity

B1: Hexokinase-4 (Homo sapiens), P35557 (protein)
chain: MLDDRARMEAAKKEKVEQILAEFQLQEEDLKKVMRRMQKEMDRGLRLETHEEASVKMLPTYVRSTPEGSEVGDFLSLDLGGTNFRVMLVKVGEGEEGQWSVKTKHQMYSIPEDAMTGTAEMLFDYISECISDFLDKHQMKHKKLPLGFTFSFPVRHEDIDKGILLNWTKGFKASGAEGNNVVGLLRDAIKRRGDFEMDVVAMVNDTVATMISCYYEDHQCEVGMIVGTGCNACYMEEMQNVELVEGDEGRMCVNTEWGAFGDSGELDEFLLEYDRLVDESSANPGQQLYEKLIGGKYMGELVRLVLLRLVDENLLFHGEASEQLRTRGAFETRFVSQVESDTGDRKQIYNILSTLGLRPSTTDCDIVRRACESVSTRAAHMCSAGLAGVINRMRESRSEDVMRITVGVDGSVYKLHPSFKERFHASVRRLTPSCEITFIESEEGSGRGAALVSAVACKKACMLGQ
Vmax: 150%
